In PMC4239116, “Crystal Structure of Cytomegalovirus IE1 Protein Reveals Targeting of TRIM Family Member PML via Coiled-Coil Interactions” (PLoS Pathogens, 2014):

B1: hIE1_(CORE)(14-382), recombinant (domain or fragment)
chain: PDEGPSSKVPRPETPVTKATTFLQTMLRKEVNSQLSLGDPLFPELAEESLKTFEQVTEDCNENPEKDVLAELVKQIKVRVDMVRHRIKEHMLKKYTQTEEKFTGAFNMMGGCLQNALDILDKVHEPFEEMKCIGLTMQSMYENYIVPEDKREMWMACIKELHDVSKGAANKLGGALQAKARAKKDELRRKMMYMCYRNIEFFTKNSAFPKTTNGCSQAMAALQNLPQCSPDEIMAYAQKIFKILDEERDKVLTHIDHIFMDILTTCVETMCNEYKVTSDACMMTMYGGISLLSEFCRVLCCYVLEETSVMLAKRPLITKPEVISVMKRRIEEICMKVFAQYILGADPLRVCSPSVDDLRAIAEESDEEE
notes: also called hIE1(14-382); source: E. coli BL21(DE3), purified (glutathione sepharose, PreScission cleavage, SEC)

Assays:
[1] = target: rhIE1(36-395), core domain of rhesus cytomegalovirus IE1, lysine-methylated (rhesus cytomegalovirus (rhesus macaque CMV)); experiment: crystal structure; rhIE1(36-395), lysine-methylated; hanging drop, 0.4 M magnesium formate, 15% (w/v) PEG 3350; monoclinic P2_1 crystals and, after controlled dehydration, tetragonal P4_3 crystals (2.3 Å)
[2] = target: the molecule itself; experiment: SEC; Superdex 200 prepgrade; 25 mM Tris, 150 mM NaCl, 10 mM DTT, pH 7.5; calibrated with the Bio-Rad gel filtration standard

Molecule	stoichiometry N [1]	binding result [2]
rhIE1(36-395), core domain of rhesus cytomegalovirus IE1, lysine-methylated (domain or fragment)	2	–
B1	–	binds
